Results as given in patent US20060062729A1, “Enhanced ligand binding to neurotensin receptors” (priority 2004, published 2006).
Blank lines part the entries; values can stand above or below the compound they belong to. Non-standard residues stand in square brackets, D forms with d. Residues, ends and D or L forms follow the SMILES beside them. *: point of attachment. PhAc = O=C(Cc1ccccc1)*

Legend:
[1] = target: vasopressin (V1a) receptor of PC3 cells (UniProt P37288); experiment: 125I-HOLVA binding to PC3 cell membranes with 60 µM NIF
Chain of vasopressin (V1a) receptor of PC3 cells (P37288 whole entry): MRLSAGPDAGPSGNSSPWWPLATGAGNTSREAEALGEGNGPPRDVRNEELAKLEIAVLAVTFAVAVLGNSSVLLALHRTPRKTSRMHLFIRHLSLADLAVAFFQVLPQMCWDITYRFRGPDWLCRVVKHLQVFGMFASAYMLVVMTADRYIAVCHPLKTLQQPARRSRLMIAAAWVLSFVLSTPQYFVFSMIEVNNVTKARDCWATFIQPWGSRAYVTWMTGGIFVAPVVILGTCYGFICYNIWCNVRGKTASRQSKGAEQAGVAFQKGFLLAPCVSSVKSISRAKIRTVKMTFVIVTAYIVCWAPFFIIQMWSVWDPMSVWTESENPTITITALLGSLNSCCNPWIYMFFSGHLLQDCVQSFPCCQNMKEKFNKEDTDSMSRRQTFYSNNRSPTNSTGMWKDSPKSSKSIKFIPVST

[2] = target: vasopressin (V1a) receptor of PC3 cells (UniProt P37288); experiment: 125I-ligand binding to PC3 cells with 12 µM phloretin
[3] = target: vasopressin (V1a) receptor of PC3 cells (UniProt P37288); experiment: 125I-ligand binding to PC3 cells with 12 µM verapamil
[4] = target: vasopressin (V1a) receptor of PC3 cells (UniProt P37288); experiment: 125I-ligand binding to PC3 cells, 37 C, with 60 µM MK886
[5] = target: vasopressin (V1a) receptor of PC3 cells (UniProt P37288); experiment: 125I-ligand binding to PC3 cells, 37 C, with 60 µM Rev-5901
[6] = target: vasopressin (V1a) receptor of PC3 cells (UniProt P37288); experiment: 125I-ligand binding to PC3 cells with 60 µM phloretin
[7] = target: vasopressin (V1a) receptor of PC3 cells (UniProt P37288); experiment: 125I-ligand binding to PC3 cells, 37 C, with 12 µM AA-861
[8] = target: vasopressin (V1a) receptor of PC3 cells (UniProt P37288); experiment: Scatchard analysis, PC3 cells
[9] = target: vasopressin (V1a) receptor of PC3 cells (UniProt P37288); experiment: 125I-ligand binding to PC3 cells, 37 C, with 12 µM MK886
[10] = target: vasopressin (V1a) receptor of PC3 cells (UniProt P37288); experiment: 125I-HOLVA binding to PC3 cell membranes with 60 µM SKF-96365
[11] = target: vasopressin (V1a) receptor of PC3 cells (UniProt P37288); experiment: 125I-ligand binding to PC3 cells
[12] = target: vasopressin (V1a) receptor of PC3 cells (UniProt P37288); experiment: 125I-ligand binding to PC3 cells, 37 C, with 12 µM NDGA
[13] = target: vasopressin (V1a) receptor of PC3 cells (UniProt P37288); experiment: 125I-ligand binding to PC3 cells with 60 µM SKF-96365
[14] = target: vasopressin (V1a) receptor of PC3 cells (UniProt P37288); experiment: 125I-ligand binding to PC3 cells with 60 µM NIF
[15] = target: vasopressin (V1a) receptor of PC3 cells (UniProt P37288)
[16] = target: vasopressin (V1a) receptor of PC3 cells (UniProt P37288); experiment: 125I-ligand binding to PC3 cells, 37 C, with 12 µM Rev-5901
[17] = target: vasopressin (V1a) receptor of PC3 cells (UniProt P37288); experiment: 125I-ligand binding to PC3 cells, 37 C, with 60 µM AA-861
[18] = target: vasopressin (V1a) receptor of PC3 cells (UniProt P37288); experiment: 125I-ligand binding to PC3 cells with 12 µM NIF
[19] = target: vasopressin (V1a) receptor of PC3 cells (UniProt P37288); experiment: 125I-HOLVA binding to PC3 cell membranes with 60 µM verapamil
[20] = target: vasopressin (V1a) receptor of PC3 cells (UniProt P37288); experiment: 125I-ligand binding to PC3 cells with 12 µM SKF-96365
[21] = target: vasopressin (V1a) receptor of PC3 cells (UniProt P37288); experiment: 125I-ligand binding to PC3 cells, 37 C, with 60 µM NDGA
[22] = target: vasopressin (V1a) receptor of PC3 cells (UniProt P37288); experiment: 125I-ligand binding to PC3 cells with 60 µM verapamil
bombesin receptor = target: T1, bombesin receptor (Homo sapiens, UniProt P30550); experiment: ^125I-[Nle^14]-bombesin binding to PC3 cells; conditions: 37° C.
T1 construct: endogenous in cells; host or cells: PC3 cells (ATCC)
T1 sequence (P30550 whole entry): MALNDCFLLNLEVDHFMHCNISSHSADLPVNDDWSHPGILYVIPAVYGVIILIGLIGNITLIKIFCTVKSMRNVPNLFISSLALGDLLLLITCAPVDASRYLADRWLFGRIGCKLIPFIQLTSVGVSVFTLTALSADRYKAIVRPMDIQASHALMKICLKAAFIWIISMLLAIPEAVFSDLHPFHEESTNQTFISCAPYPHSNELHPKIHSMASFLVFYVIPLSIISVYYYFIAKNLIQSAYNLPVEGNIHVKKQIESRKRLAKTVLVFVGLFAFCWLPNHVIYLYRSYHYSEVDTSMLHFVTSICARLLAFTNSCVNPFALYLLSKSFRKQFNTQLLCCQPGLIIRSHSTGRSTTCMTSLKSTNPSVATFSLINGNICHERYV

NTR1 [23] = target: T2, NTR1 (Homo sapiens, UniProt P30989); experiment: ^125I-NT binding to isolated PC3 cell membranes; parameters: Ab-NTR1 detected two major bands in extracts of PC3 cells, the parent protein of 50 kDa; endogenous in cells; host or cells: PC3 cells (ATCC)
T2 sequence (P30989 whole entry): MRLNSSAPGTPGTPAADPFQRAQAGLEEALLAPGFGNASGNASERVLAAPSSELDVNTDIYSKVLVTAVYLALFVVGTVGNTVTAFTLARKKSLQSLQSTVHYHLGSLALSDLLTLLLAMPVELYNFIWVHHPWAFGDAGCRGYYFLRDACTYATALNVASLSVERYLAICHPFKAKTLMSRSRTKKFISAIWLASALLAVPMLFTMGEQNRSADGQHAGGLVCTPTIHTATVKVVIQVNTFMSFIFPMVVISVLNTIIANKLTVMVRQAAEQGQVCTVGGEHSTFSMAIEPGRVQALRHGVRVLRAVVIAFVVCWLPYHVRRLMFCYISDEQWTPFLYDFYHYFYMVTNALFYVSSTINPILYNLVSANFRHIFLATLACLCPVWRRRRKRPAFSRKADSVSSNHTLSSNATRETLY

5-LOX = target: T3, 5-LOX (Homo sapiens, UniProt P09917); conditions: range of reported values, various blood cell systems; cited from earlier work
T3 sequence (P09917 1-674): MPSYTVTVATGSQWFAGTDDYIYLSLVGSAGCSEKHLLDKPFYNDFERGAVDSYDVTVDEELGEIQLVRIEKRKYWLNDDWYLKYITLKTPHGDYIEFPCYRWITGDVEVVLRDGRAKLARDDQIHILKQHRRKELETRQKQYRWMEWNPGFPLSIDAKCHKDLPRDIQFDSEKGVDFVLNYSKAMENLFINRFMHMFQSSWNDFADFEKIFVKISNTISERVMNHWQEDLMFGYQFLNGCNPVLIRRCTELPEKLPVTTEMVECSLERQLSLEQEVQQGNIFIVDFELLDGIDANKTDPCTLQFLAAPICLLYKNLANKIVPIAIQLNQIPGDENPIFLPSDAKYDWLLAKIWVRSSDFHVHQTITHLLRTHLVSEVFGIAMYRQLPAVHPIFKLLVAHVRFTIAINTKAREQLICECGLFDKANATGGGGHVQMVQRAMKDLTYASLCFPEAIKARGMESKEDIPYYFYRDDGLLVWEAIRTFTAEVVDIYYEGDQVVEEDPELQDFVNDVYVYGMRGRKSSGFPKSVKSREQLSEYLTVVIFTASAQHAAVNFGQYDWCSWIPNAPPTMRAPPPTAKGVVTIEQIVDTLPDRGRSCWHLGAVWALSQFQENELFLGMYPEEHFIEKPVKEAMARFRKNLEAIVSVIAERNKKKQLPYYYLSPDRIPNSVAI

[24] = target: bombesin receptor of PC3 cells; experiment: 125I-ligand binding to PC3 cells with 12 µM phloretin
Chain of bombesin receptor of PC3 cells (P30550 whole entry): as the sequence (P30550 whole entry) above

[25] = target: bombesin receptor of PC3 cells; experiment: 125I-ligand binding to PC3 cells with 12 µM verapamil
[26] = target: bombesin receptor of PC3 cells; experiment: 125I-ligand binding to PC3 cells, 37 C, with 60 µM MK886
[27] = target: bombesin receptor of PC3 cells; experiment: 125I-ligand binding to PC3 cells, 37 C, with 60 µM Rev-5901
[28] = target: bombesin receptor of PC3 cells; experiment: 125I-ligand binding to PC3 cells with 60 µM phloretin
[29] = target: bombesin receptor of PC3 cells; experiment: 125I-ligand binding to PC3 cells, 37 C, with 12 µM AA-861
[30] = target: bombesin receptor of PC3 cells; experiment: Scatchard analysis, PC3 cells
[31] = target: bombesin receptor of PC3 cells; experiment: 125I-ligand binding to PC3 cells, 37 C, with 12 µM MK886
[32] = target: bombesin receptor of PC3 cells; experiment: 125I-ligand binding to PC3 cells
[33] = target: bombesin receptor of PC3 cells; experiment: 125I-ligand binding to PC3 cells, 37 C, with 12 µM NDGA
[34] = target: bombesin receptor of PC3 cells; experiment: 125I-ligand binding to PC3 cells with 60 µM SKF-96365
[35] = target: bombesin receptor of PC3 cells; experiment: 125I-ligand binding to PC3 cells with 60 µM NIF
[36] = target: bombesin receptor of PC3 cells
[37] = target: bombesin receptor of PC3 cells; experiment: 125I-ligand binding to PC3 cells, 37 C, with 12 µM Rev-5901
[38] = target: bombesin receptor of PC3 cells; experiment: 125I-ligand binding to PC3 cells, 37 C, with 60 µM AA-861
[39] = target: bombesin receptor of PC3 cells; experiment: 125I-ligand binding to PC3 cells with 12 µM NIF
[40] = target: bombesin receptor of PC3 cells; experiment: 125I-ligand binding to PC3 cells with 12 µM SKF-96365
[41] = target: bombesin receptor of PC3 cells; experiment: 125I-ligand binding to PC3 cells, 37 C, with 60 µM NDGA
[42] = target: bombesin receptor of PC3 cells; experiment: 125I-ligand binding to PC3 cells with 60 µM verapamil
NTR1 [43] = target: T2, NTR1; experiment: ^125I-NT binding to PC3 cells; conditions: LOX blockers
[44] = target: neurotensin receptor NTR1 of PC3 cells (human) (UniProt P30989); experiment: UV crosslinking to PC3 cells with 50 µM NDGA, immunoprecipitation with antiserum to NTR1
Chain of neurotensin receptor NTR1 of PC3 cells (human) (P30989 whole entry): as the sequence (P30989 whole entry) above

[45] = target: neurotensin receptor NTR1 of PC3 cells (human) (UniProt P30989); experiment: UV crosslinking to PC3 cells with verapamil, immunoprecipitation with Ab-NTR1
[46] = target: neurotensin receptor NTR1 of PC3 cells (human) (UniProt P30989); experiment: UV crosslinking to PC3 cells with 50 µM MK886, immunoprecipitation with antiserum to NTR1
[47] = target: neurotensin receptor NTR1 of PC3 cells (human) (UniProt P30989); experiment: UV crosslinking to PC3 cells with phloretin, immunoprecipitation with Ab-NTR1
[48] = target: neurotensin receptor NTR1 of PC3 cells (human) (UniProt P30989); experiment: UV crosslinking to PC3 cells with NIF, immunoprecipitation with Ab-NTR1
[49] = target: T4, vasopressin (V1a) receptor (Homo sapiens, UniProt P37288); experiment: ^125I-HOLVA binding to PC3 cells
T4 construct: endogenous in cells; host or cells: PC3 cells (ATCC)
T4 sequence (P37288 whole entry): as the sequence (P37288 whole entry) above

Binding (% control) [1]: 90 % control | Specific Binding (% control) [2]: 92 % control | Specific Binding (% control) [3]: 85 % control | Specific Binding (% control) [4]: 67 % control | Specific Binding (% control) [5]: 42 % control | Specific Binding (% control) [6]: 73 % control | Specific Binding (% control) [7]: 87 % control | Bmax [8]: 156 fmol/mg | Specific Binding (% control) [9]: 93 % control | Binding (% control) [10]: 110 % control | Specific Binding (% of total) [11]: 77 % of total | Specific Binding (% control) [12]: 84 % control | Specific Binding (% control) [13]: 50 % control | Specific Binding (% control) [14]: 59 % control | Ki [15]: 0.5 nM | Specific Binding (% control) [16]: 68 % control | Specific Binding (% control) [17]: 57 % control | Specific Binding (% control) [18]: 95 % control | Binding (% control) [19]: 91 % control | Specific Binding (% control) [20]: 80 % control | Specific Binding (% control) [21]: 50 % control | Specific Binding (% control) [22]: 58 % control
Compound: des-Gly-[Phaa1, D-Tyr(Et)2, Lys6, Arg8]-vasopressin (HOLVA) (peptide)

Specific Binding (% control) of ^125I-[Nle14]-bombesin (bombesin receptor; 12 μM LOX blocker): 112 ± 4 % control | Specific Binding (% control) of ^125I-[Nle14]-bombesin (bombesin receptor; 60 μM LOX blocker): 135 ± 6 % control | Specific NT-Binding (% control) (NTR1 [23]; 10 μM LOX pathway blocker): 107 ± 4 % control | Specific NT-Binding (% control) (NTR1 [23]; 25 μM LOX pathway blocker): 109 ± 4 % control | Specific NT-Binding (% control) (NTR1 [23]; 75 μM LOX pathway blocker): 110 ± 5 % control
Compound: CC1=C(C)C(=O)C(CCCCC#CCCCC#CCO)=C(C)C1=O [AA861]
IC50 (5-LOX): 100 to 2000 nM

Specific Binding (% control) [24]: 104 % control | Specific Binding (% control) [25]: 104 % control | Specific Binding (% control) [26]: 125 % control | Specific Binding (% control) [27]: 119 % control | Specific Binding (% control) [28]: 111 % control | Specific Binding (% control) [29]: 112 % control | Bmax [30]: 1020 fmol/mg | Specific Binding (% control) [31]: 106 % control | Specific Binding (% of total) [32]: 95 % of total | Specific Binding (% control) [33]: 110 % control | Specific Binding (% control) [34]: 106 % control | Specific Binding (% control) [35]: 119 % control | Ki [36]: 0.6 nM | Specific Binding (% control) [37]: 107 % control | Specific Binding (% control) [38]: 135 % control | Specific Binding (% control) [39]: 108 % control | Specific Binding (% control) [40]: 99 % control | Specific Binding (% control) [41]: 127 % control | Specific Binding (% control) [42]: 104 % control
Compound: [Tyr^4, Nle^14]-bombesin (peptide)

Compound: CCCCCC#CCC#CCC#CCC#CCCCC(=O)O [ETYA, 5,8,11,14-eicosatetraynoic acid]
IC50 (5-LOX): 6000 to 50000 nM

Compound: CCNC(=O)[C@H]1O[C@@H](n2cnc3c(N)nc(NCCc4ccc(CCC(=O)O)cc4)nc32)[C@H](O)[C@@H]1O [CGS21683]
IC50 (5-LOX): 10 to 1000 nM | NT Binding Efficacy % increase (NTR1 [43]): 228 % increase

fold increase in radioactivity associated with NTR1 [44]: 2.6 fold | fold increase in radioactivity associated with NTR1 [45]: 1.5 fold | fold increase in radioactivity associated with NTR1 [46]: 2.7 fold | fold increase in radioactivity associated with NTR1 [47]: 1.8 fold | fold increase in radioactivity associated with NTR1 [48]: 2.8 fold
Compound: ^125I-[4-azido-Phe^6]-NT (peptide)

Compound: CCOc1ccc(C[C@@H](NC(=O)Cc2ccccc2)C(=O)N[C@@H](Cc2ccccc2)C(=O)N[C@@H](CCC(N)=O)C(=O)N[C@@H](CC(N)=O)C(=O)N[C@@H](CCCCN)C(=O)N2CCC[C@H]2C(=O)N[C@@H](CCCNC(=N)N)C(N)=O)cc1 [^125I-HOLVA, des-Gly-[Phaa1, D-Tyr(Et)2, Lys6, Arg8]-vasopressin] (PhAc-[dY](Et)FQNKPR-NH2; N-terminus and C-terminus assumed)
Specific Binding (% of total) ([49]; 10^5 cpm ^125I-ligand): 77 % of total | Bmax ([49]; Scatchard analysis): 156 ± 12 fmol/mg
